Patent US12312397B2, “Anti-O2 antibodies and uses thereof” (priority 2016, dated 2025)
Where a chain is given by its changes, count along the chain named.

B1: KPS44: Class III anti-O2 antigen human mAb; VH SEQ ID NO: 116, VL SEQ ID NO: 117 (antibody, V domains shown)
VH: EVHLVESGGGLVKPGGSLRLSCAASGFTFKNAWMSWIRQAPGKGLEWVGRVKSEVDGGTIDYGVPVRGRFTISRDDSQGTLSLEMNSLKDDDTGVYYCRAFWSGFPTGYWGQGALVSVSS
VL: QSVLTQPPSLSAAPGQTITIACSGTSSNIGSDSVSWFQQFPGTAPRVLIYENNKRPSGISDRFSGSKSGTSVTLGITGLQTGDEADYYCATWDSSLSAYVFGSGTKVTVL
modifications: Description of Artificial Sequence: SyntheticKPS44/KPS44-G1 VH polypeptide; Description of Artificial Sequence: SyntheticKPS44 VL polypeptide
B2: KPS44v2017: sequence-optimized KPS44, Class III; VH SEQ ID NO: 202, VL SEQ ID NO: 203 (antibody, V domains shown)
VH: B1 VH with W102F
VL: B1 VL with D32N, S33Y, W92F
modifications: Description of Artificial Sequence: SyntheticKPS44-v2017/KPS44-G2/KPS44-G3 VH polypeptide; Description of Artificial Sequence: SyntheticKPS44-v2017/KPS44-G1 VL polypeptide
B3: KPL26: Class II anti-O2 antigen human mAb; VH SEQ ID NO: 89, VL SEQ ID NO: 90 (antibody, V domains shown)
VH: EVQLVESGGGLVQSGGSLRLSCETSGFIFGSSWMTWVRQAPGKGLEWVATINPDGSATSYEDSVRGRFAVSRDNAKNSVYLQMNSLRAEDTAVYFCTRNKAYNALDYWGQGTLVTVSS
VL: QSALTQPPSASGSPGQSVTLSCTGTSSDVGGNNYVSWYQQHPGKAPKLIIYEVSKRPSGVPNRFSGSKSGNTASLTVSGLQAEDEADYYCSSFGGSKMFGGGTKLTVL
modifications: Description of Artificial Sequence: SyntheticKPL26 VH polypeptide; Description of Artificial Sequence: SyntheticKPL26 VL polypeptide

Tests used:
[1] = system: O1 LPS activation of NF-κB in RAW264.7-lux cells; test: LPS neutralization assay (NF-κB luciferase, RAW264.7-lux), O1 LPS; assay type: cell-based, murine; design: key to LPS Neut O1: +++: Strongly positive activity; +: Positive activity; +/−: Somewhat positive depending upon the test conditions; conditions: for neutralizing activity against O1 LPS (NF-κB activation): human IgG1 format
Description: (§1) Activation of TLR4 receptors by bacterial LPS leads to downstream activation of the NF-κB transcriptional regulator. A decrease in induction of NF-κB-responsive luciferase activity was used to quantify LPS neutralization activity by LPS mAbs. A murine RAW264.7 macrophage cell line was engineered to carry a firefly luciferase reporter gene under the control of an NF-κB-responsive promoter (RAW264.7-lux). Serially diluted antibody stocks were mixed with LPS in a 1:1 ratio and incubated at 4° C. for 1 hr. Antibody/LPS mixtures were then diluted 1:10 into assay plates containing pre-seeded RAW264.7-lux cells (4e5 cells/well), which were then placed at 37° C. with 5% CO2 for 2.5 hours. Following incubations, Steady Glo solution (Promega) was added to each well and incubated for another 20 min protected from light. The relative light units (RLUs) were measured using a multi-mode microplate reader (Synergy 2, Biotek or envision multilabel plate reader, Perkin Elmer). The percentage of inhibition was determined by comparing RLU derived from assays with no antibodies to RLU derived from assays with anti-K. pneumoniae mAbs and assays performed with a negative control mAb. […] All mAbs were tested in human IgG1 format.

[2] = system: K. pneumoniae 8570ΔcpsBLux (O2); test: Opsonophagocytic killing (OPK) assay, O2 capsule mutant; assay type: cell-based, Klebsiella pneumoniae; design: key to D Capsule OPK O2: +++: Strongly positive activity; +: Positive activity; +/−: Somewhat positive depending upon the test conditions; conditions: for D Capsule OPK O2: capsule mutant strain 8570ΔcpsB lux (O2); for OPK activity against O2 capsule mutant: secondary screening
Description: (§2) OPK activity of anti-O2 LPS mAbs was tested against O1 and O2 strains. Briefly, log phase cultures of luminescent K. pneumoniae strains 8570ΔcpsBLux (O2) and 43816ΔcpsBLux (O1) were diluted to ˜2×10^6 cells/ml. K. pneumoniae cells, 5e5/well dimethylformamide (DMF) differentiated HL-60 cells, cleared baby rabbit serum (1:10 Cedarlane), and a series dilution of antibodies (2 ng-2.5 μg/mL) were mixed in 96-well plates and incubated at 37° C. for two hours with shaking (250 rpm). The relative light units (RLUs) were then measured using a multi-mode microplate reader (Synergy 2, Biotek or envision multilabel plate reader, Perkin Elmer). The percentage of killing was determined by comparing RLU derived from assays with no antibodies to RLU derived from assays with anti-K. pneumoniae mAbs and assays performed with a negative control mAb. Positive killing was determined where the percentage of killing is above 40%.

[3] = system: K. pneumoniae O2; test: Mouse protection models (O2), Table 7 summary; assay type: in vivo, Klebsiella pneumoniae; design: key: +++: Strongly positive activity; +: Positive activity; +/−: Somewhat positive depending upon the test conditions; conditions: mouse pneumonia models
Description: As described in more detail in below, anti-O2 LPS mAbs were tested for: 1) binding to O1 and O2 LPS (see Example 5); 2) LPS neutralization (LPS-Neut) against O1 and O2 LPS (see Example 7); 3) OPK against capsule mutant strain 43816ΔcpsB lux (O1) and 8570ΔcpsB lux (O2) (see Example 8); and 4) protective activity in pneumonia models (see Example 9). O2 LPS mAbs were subsequently divided into three classes based on their in vitro activities. Class I mAbs were characterized as Binding (O1+O2+)/OPK (O1−O2+); Class 2 mAbs were characterized as Binding (O1+O2+)/OPK (O1+O2+); and Class III mAbs were characterized as Binding (O1±O2+)/OPK (O1−O2+).
(§3) C57/BL6 mice were obtained from Jackson Laboratories and maintained in a special pathogen-free facility. All animal experiments were conducted in accordance with Institutional Animal Care and Use Committee (IACUC) protocol and guidance. K. pneumoniae strains were grown on agar plates overnight and diluted in saline at proper concentration. The inoculum titer was determined by plating a serial dilution of bacteria onto agar plates prior to and post challenge. In acute pneumonia models, C57/BL6 mice were inoculated with 1e4 to 2e8 colony-forming units (CFU) of K. pneumoniae clinical isolates in 50 μl saline intranasally. Anti-K pneumoniae monoclonal antibodies (mAbs) and human IgG1 control antibodies were given 1-24 hour post bacterial challenge (therapeutic dosing). Mouse survival was monitored daily until up to day 8. Survival data of representative experiments were plotted in Graphpad Prism software.
(§4) Mice were challenged with 2e8 CFU of Klebsiella pneumoniae Carbanpenemase (KPC) strain Kp961842_O2 or with 3e8 CFU of KPC strain Kp977778_O2, followed by the administration of anti-O2 mAbs. When administered at a concentration of 2 mg/kg 1 hour post bacterial infection, Class III anti-O2 LPS mAbs KPN42, KPN179-IgG1, and KPS44v2017 protected mice from lethal bacterial challenge with the multi-drug resistant KPC strains Kp961842_O2 (FIG. 6, left panel, and FIG. 10) and Kp977778_O2 (FIG. 6B, right panel).

[4] = system: O2 LPS activation of NF-κB in RAW264.7-lux cells; test: LPS neutralization assay (NF-κB luciferase, RAW264.7-lux), O2 LPS; assay type: cell-based, murine; design: key to LPS Neut O2: +++: Strongly positive activity; +: Positive activity; +/−: Somewhat positive depending upon the test conditions; conditions: for LPS Neut O2: Table 7 summary; for neutralizing activity against O2 LPS (NF-κB activation): human IgG1 format
Description: as §1

[5] = system: KPC strain Kp961842_O2; test: Lethal pneumonia model, KPC strain Kp961842_O2; assay type: in vivo, Klebsiella pneumoniae; conditions: C57/BL6 mice, 2e8 CFU; mAb 2 mg/kg 1 hour post infection; survival
Description: as §3, §4

[6] = system: KPC strain Kp977778_O2; test: Lethal pneumonia model, KPC strain Kp977778_O2; assay type: in vivo, Klebsiella pneumoniae; conditions: C57/BL6 mice, 3e8 CFU; mAb 2 mg/kg 1 hour post infection; survival
Description: as §3, §4

[7] = system: O2 LPS; test: ELISA binding to O2 LPS; design: species or system Klebsiella pneumoniae; conditions: secondary screening, ELISA
Description: (§5) The coated plates were incubated with cell culture supernatants from polyclonally stimulated lymphocytes (AMVBRA) or from monoclonal immortalized B cells (donor interrogations) containing fully human antibodies or with diluted plasma samples (PBMC donor selections) for 1 hour at room temperature. The plates were then washed with PBS containing 0.1% Tween-20 (PBS-T). Secondary antibody was added; either Alkaline Phosphatase-conjugated Goat Anti-Human IgG-AP (Southern Biotech, 2040-04, 1:1000 in PBS-B) or Peroxidase AffiniPure F(ab′)2 Fragment Goat Anti-Human IgG, Fc Fragment Specific (Jackson ImmunoResearch #309 036 098, 1:5000 in PBS-B) were used. Secondary antibodies were typically incubated for 1 h. Plates were washed three times with PBS-T, and P-NitroPhenyl Phosphate (pNPP, Sigma-Aldrich, cat #N2765-100TAB) or Sureblue (KPL, 53-00-03) substrates were added and incubated for 10 min or until the development of a colorimetric reaction. In the case of the HRP substrate Sureblue, the reaction was stopped by adding an equal volume of 0.2N HCl. The absorbance at 405 nm (pNPP) or 450 nm (Sureblue) was measured by a microplate reader (Biotek, Elx808).
(§6) The coated plates were incubated with serial dilutions of the monoclonal antibodies for 1 hour at room temperature. The plates were then washed with PBS containing 0.1% Tween-20 (PBS-T). Alkaline Phosphatase-conjugated Goat Anti-Human IgG (Southern Biotech, 2040-04, 1:1000 in PBS-B) was added. The secondary antibody reactions were incubated for 1 h. Plates were washed three times with PBS-T, and P-NitroPhenyl Phosphate (pNPP, Sigma-Aldrich, cat #N2765-100TAB) substrate was added and incubated for 30 min or until the development of a colorimetric reaction. The absorbance at 405 nm was measured by a microplate reader (Biotek, Elx808). The data was plotted with Graphpad Prism software. Representative mAbs from each class were tested for their binding to O1 LPS (FIG. 2A) and O2 LPS (FIG. 2B), and EC50 values were obtained (FIG. 2C). The majority of the anti-O2 LPS mAbs bound to both O1 and O2 LPS by ELISA. […] None of these LPS mAbs bound to the 03, 04, 05, 07, or 012 LPS serotypes (see e.g., FIG. 1A).

[8] = system: K. pneumoniae 43816ΔcpsBLux (O1); test: Opsonophagocytic killing (OPK) assay, O1 capsule mutant; assay type: cell-based, Klebsiella pneumoniae; design: key to D Capsule OPK O1: +++: Strongly positive activity; +: Positive activity; +/−: Somewhat positive depending upon the test conditions
Description: as §2

[9] = system: K. pneumoniae O1; test: Lethal O1 pneumonia model; assay type: in vivo, Klebsiella pneumoniae; design: key to Mouse protection models (O1): +++: Strongly positive activity; +: Positive activity; +/−: Somewhat positive depending upon the test conditions
Description: as §3
Mice were challenged with 2e8 CFU of Klebsiella pneumoniae Carbanpenemase (KPC) strain Kp961842_O2 or with 3e8 CFU of KPC strain Kp977778_O2, followed by the administration of anti-O2 mAbs. […]

[10] = system: O1 LPS; test: ELISA binding to O1 LPS; design: species or system Klebsiella pneumoniae; conditions: secondary screening
Description: as §5, §6

| Molecule | neutralizing activity against O1 LPS (NF-κB activation) [1] | D Capsule OPK O2 [2] | OPK activity against O2 capsule mutant [2] | Mouse protection models (O2) [3] | LPS Neut O2 [4] | neutralizing activity against O2 LPS (NF-κB activation) [4] | protection from lethal bacterial challenge, Kp961842_O2 [5] | protection from lethal bacterial challenge, Kp977778_O2 [6] | binding to LPS-O2 [7] | LPS Neut O1 ([1]; Table 7 summary) | neutralization of LPS-O1 ([1]; secondary screening) | OPK activity against O2 strain ([2]; 8570ΔcpsBLux (O2), positive killing above 40%) | OPK activity against O1 strain ([8]; 43816ΔcpsBLux (O1), positive killing above 40%) | D Capsule OPK O1 ([8]; capsule mutant strain 43816ΔcpsB lux (O1)) | OPK activity against O1 capsule mutant ([8]; secondary screening) | protection in lethal O1 pneumonia model ([9]; mice, survival) | Mouse protection models (O1) ([9]; mouse pneumonia model, O1) | binding to LPS-O1 [10] | neutralization of LPS-O2 ([4]; secondary screening) |
| --- | --- | --- | --- | --- | --- | --- | --- | --- | --- | --- | --- | --- | --- | --- | --- | --- | --- | --- | --- |
| B1 | no activity | +++ | strong OPK activity | +++ | +/− | moderate neutralizing activity | – | – | – | – | – | – | – | – | – | – | – | – | – |
| B2 | – | +++ | – | +++ | +/− | – | protected | protected | – | – | – | – | – | – | – | – | – | – | – |
| B3 | blocked | + | showed OPK activity | – | + | blocked | did not show protection | – | confirmed to bind | + | neutralize | induced OPK activity | induced OPK activity | + | showed OPK activity | moderate protection | + | confirmed to bind | neutralize |
